# B1: VTI1B (parent)
# chain: NKLLLSIIILLELAILGGLVYYKF
# Variants of: B1
# Test: protein stability index of a GFP-peptide fusion (GPS, HEK-293T) (PSI 1-6); higher = more stable
# Settings: c terminus: a fixed tail appended
# 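Note: lentivirally expressed fusions sorted by FACS into six bins by GFP to DsRed ratio, PSI derived from sequencing read proportions per bin multiplied by bin number.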
row,Variant,protein stability index
1,NKLLLSIIILLELAILGGLVNYKF,2.3
2,NKLLLSIIILLELAILGGLVGYKF,3.61
3,NKLLLSIIILLELAILGGLVMYKF,2.58
4,NKLLLSIIILLELAILGGLVKYKF,2.65
5,NKLLLSIIILLELAILGGLVTYKF,2.79
6,NKLLLSIIILLELAILGGLVVYKF,2.17
7,NKYLLSIIILLELAILGGLVYYKF,3.55
8,NKELLSIIILLELAILGGLVYYKF,2.84
9,NKKLLSIIILLELAILGGLVYYKF,1.85
10,NKCLLSIIILLELAILGGLVYYKF,2.54
11,NKILLSIIILLELAILGGLVYYKF,2.78
12,NKVLLSIIILLELAILGGLVYYKF,3.79
13,NKLLLSIIILLELAILGGLPYYKF,2.94
14,NKLLLSIIILLELAILGGLFYYKF,2.98
15,NKLLLSIIILLELAILGGLQYYKF,3.31
16,NKLLLSIIILLELAILGGLRYYKF,3.41
17,NKLLLSIIILLELAILGGLWYYKF,2.84
18,NKLLLSIIILLELAILGGLDYYKF,3.38
19,NKLLLSIIILLELAILGGLAYYKF,2.12
20,NKLLLSIIILLEVAILGGLVYYKF,1.79
21,NKLLLSIIILLEHAILGGLVYYKF,3.39
22,NKLLLSIIILLEIAILGGLVYYKF,3.27
23,NKLLLSIIILLENAILGGLVYYKF,2.58
24,NKLLLSIIILLEMAILGGLVYYKF,3.13

row,Variant,protein stability index
1,NKLLLSIIILLEWAILGGLVYYKF,3.72
2,NKLLLSIIILLEFAILGGLVYYKF,3.1
3,NKLLLSIIILLEPAILGGLVYYKF,3.15
4,NKLLLSIIILLEEAILGGLVYYKF,2.44
5,NKLLLSIIILLETAILGGLVYYKF,3.42
6,NKLLLSIIILLESAILGGLVYYKF,3.71
7,NKLMLSIIILLELAILGGLVYYKF,1.8
8,NKLDLSIIILLELAILGGLVYYKF,3.75
9,NKLVLSIIILLELAILGGLVYYKF,2.82
10,NKLKLSIIILLELAILGGLVYYKF,2.39
11,NKLILSIIILLELAILGGLVYYKF,2.94
12,NKLWLSIIILLELAILGGLVYYKF,2.25
13,NKLSLSIIILLELAILGGLVYYKF,2.38
14,NKLTLSIIILLELAILGGLVYYKF,1.51
15,NKLGLSIIILLELAILGGLVYYKF,2.29
16,NKLYLSIIILLELAILGGLVYYKF,2.34
17,NKLLLSIIILLTLAILGGLVYYKF,2.87
18,NKLLLSIIILLNLAILGGLVYYKF,1.44
19,NKLLLSIIILLRLAILGGLVYYKF,2.18
20,NKLLLSIIILLPLAILGGLVYYKF,2.64
21,NKLLLSIIILLKLAILGGLVYYKF,2.66
22,NKLLLSIIILLWLAILGGLVYYKF,1.82
23,NKLLLSIIILLQLAILGGLVYYKF,3.45
24,NKLLLSIIILLYLAILGGLVYYKF,2.01

row,Variant,protein stability index
1,NKLLLSIIIVLELAILGGLVYYKF,3.92
2,NKLLLSIIIQLELAILGGLVYYKF,1.98
3,NKLLLSIIISLELAILGGLVYYKF,4.51
4,NKLLLSIIIMLELAILGGLVYYKF,2.86
5,NKLLLSIIITLELAILGGLVYYKF,1.93
6,NKLLLSIIIFLELAILGGLVYYKF,2.6
7,NKLLLSIIIELELAILGGLVYYKF,3.16
8,NKLLLSIIIPLELAILGGLVYYKF,3.62
9,NKLLLSIIILLELNILGGLVYYKF,2.81
10,NKLLLSIIILLELYILGGLVYYKF,3.19
11,NKLLLSIIILLELWILGGLVYYKF,3.4
12,NKLLLSIIILLELSILGGLVYYKF,2.35
13,NKLLLSIIILLELPILGGLVYYKF,2.64
14,NKLLLSIIILLELHILGGLVYYKF,3.82
15,NKLLLSIIILLELMILGGLVYYKF,2.43
16,NKLLLSIIILLELAICGGLVYYKF,2.13
17,NKLLLSIIILLELAIMGGLVYYKF,3.6
18,NKLLLSIIILLELAIFGGLVYYKF,2.62
19,NKLLLSIIILLELAIQGGLVYYKF,3.17
20,NKLLLSIIILLELAIHGGLVYYKF,4.31
21,NKLLLSIIILLELAIPGGLVYYKF,2.27
22,NKLLLSIIILLELAIKGGLVYYKF,3.6
23,NKLLLSIIILLELAIRGGLVYYKF,2.77
24,GKLLLSIIILLELAILGGLVYYKF,3.29

row,Variant,protein stability index
1,QKLLLSIIILLELAILGGLVYYKF,2.12
2,FKLLLSIIILLELAILGGLVYYKF,2.82
3,LKLLLSIIILLELAILGGLVYYKF,2.74
4,VKLLLSIIILLELAILGGLVYYKF,2.54
5,YKLLLSIIILLELAILGGLVYYKF,2.36
6,AKLLLSIIILLELAILGGLVYYKF,3.04
7,CKLLLSIIILLELAILGGLVYYKF,3.66
8,NKLLLSIIILLELAILGGLVYYKT,3.12
9,NKLLLSIIILLELAILGGLVYYKD,3.03
10,NKLLLSIIILLELAILGGLVYYKK,1.52
11,NKLLLSIIILLELAILGGLVYYKW,1.83
12,NKLLLSIIILLELAILGGLVYYKP,2.79
13,NKLLLSIIILLELAILGGLVYYKC,2.01
14,NKLLLSIIILLELAILGGLVYYKQ,2.77
15,NKLLLSIIILLELAILGGLVYYKV,2.5
16,NKLLLSIIILLELAILGGLVYYKY,1.63
17,NKLLLSIIILLELAILGGLVYYKE,3.85
18,NKLLLSIIILLELAILGGLVYYKL,2.53
19,NKLLLSAIILLELAILGGLVYYKF,2.32
20,NKLLLSEIILLELAILGGLVYYKF,1.86
21,NKLLLSMIILLELAILGGLVYYKF,3.23
22,NKLLLSCIILLELAILGGLVYYKF,2.9

# Reference: the supplement of paper PMC10567573
